Test results taken from US20150141617A1, “PRODUCTION AND PURIFICATION OF ACTIVE EUKARYOTIC FORMYLGLYCINEGENERATING ENZYME (FGE) VARIANTS” (Universität Bielefeld, priority 2013, published 2015).

Legend:
human PACE4 = target: T1, human PACE4 (Homo sapiens, UniProt P29122); assay: FGE processing in CHO-FD11 Tet-On cells co-expressing PACE4; type: cell-based; conditions: PACE4 coexpression
T1 construct: expressed in transfected cells; host or cells: CHO-FD11 Tet-On cells, transient co-transfection with pBI-FGE-HA
T1 sequence (P29122 150-969): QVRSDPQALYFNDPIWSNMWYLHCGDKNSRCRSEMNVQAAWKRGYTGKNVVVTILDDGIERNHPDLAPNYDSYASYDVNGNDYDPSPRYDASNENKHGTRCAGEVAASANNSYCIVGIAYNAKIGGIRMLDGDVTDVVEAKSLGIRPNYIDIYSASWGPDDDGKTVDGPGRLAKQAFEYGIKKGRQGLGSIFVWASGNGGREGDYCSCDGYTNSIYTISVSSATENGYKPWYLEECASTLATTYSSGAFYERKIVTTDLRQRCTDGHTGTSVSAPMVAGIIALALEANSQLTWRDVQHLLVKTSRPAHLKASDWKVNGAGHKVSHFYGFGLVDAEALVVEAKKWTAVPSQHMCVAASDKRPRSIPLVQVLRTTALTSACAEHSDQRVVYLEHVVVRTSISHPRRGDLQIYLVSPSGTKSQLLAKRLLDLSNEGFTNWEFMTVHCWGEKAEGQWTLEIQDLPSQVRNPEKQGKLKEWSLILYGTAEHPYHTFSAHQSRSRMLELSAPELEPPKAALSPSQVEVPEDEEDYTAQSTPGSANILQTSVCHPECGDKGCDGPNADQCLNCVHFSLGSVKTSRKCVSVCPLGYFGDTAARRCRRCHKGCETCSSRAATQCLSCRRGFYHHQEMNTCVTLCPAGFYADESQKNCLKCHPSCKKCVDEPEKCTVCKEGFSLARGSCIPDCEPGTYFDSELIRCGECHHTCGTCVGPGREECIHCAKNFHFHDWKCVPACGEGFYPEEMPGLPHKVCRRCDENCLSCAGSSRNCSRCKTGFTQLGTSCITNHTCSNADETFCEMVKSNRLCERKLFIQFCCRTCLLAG
Excerpt: The resulting constructs were verified by full-length sequencing of the coding region to exclude any PCR prone errors. Plasmids for expression of the PCs encoding human furin (Gene ID 5045), human PACE4 (=PCSK6, Gene ID 5046), murine […] (=Pcsk5, Gene ID 18552) and rat PC7 (=Pcsk7, Gene ID 29606) were kindly provided by Abdel-Majid Khatib (18). Note that the PC cDNAs were encoded as pIRES constructs coding also for enhanced green fluorescence protein (EGFP) such that EGFP expression levels serve as a measure of the expression levels of PCs.
3 μg of pSB-FGE-RGS-His6 vector was used for single transfections of HT1080, HeLa, HEK 293, BHK and CHO cells. Conditioned medium was collected after 24 h and centrifuged (500×g, 5 min) Cells were washed once with PBS, treated with trypsin (Lonza) and pelleted by 250×g to remove the medium. Cell pellets were resuspended in PBS (pH 7.4) containing protease inhibitor (PI) cocktail (Sigma) and lysed by sonication 3×10 s on ice. For co-expression of FGE with one of the PCs in CHO-FD11 Tet-On cells 2 μg of pBI-FGE-HA and 2 μg of the plasmids encoding PCs (see above) were used for transient transfection. In case of transient transfections using pBI-vector constructs the protein expression was induced by replenishing the medium with medium containing 2 μg/mL doxycycline (BD Biosciences) at 5 h post-transfection. […]

steroid sulfatase (STS) = assay: Steroid sulfatase (STS) activity assay after co-expression with FGE in MSDi Tet-On cells; type: cell-based, human; conditions: vs STS expressed alone; doxycycline induction
Method: Activity assays of STS were performed as described earlier (15, 23). For western blot analysis, polyclonal antisera against FGE and steroid sulfatase were used as primary antibodies. Horseradish peroxidase-conjugated goat anti-rabbit antibody was used as secondary antibodies. Signals of steroid sulfatase are given as relative amounts, i.e. related to signal intensities detected in cells expressing steroid sulfatase only. Relative specific sulfatase activities were calculated, i.e. catalytic activity divided by the western blot signal (arbitrary units) and referred to that of cells expressing the sulfatase only (relative specific sulfatase activity=1). Absolute values for this reference are given in the legends.
Using this method the inventors examined whether the RYSR motif is required for the activation of sulfatases. cDNAs encoding steroid sulfatase (STS) alone or co-transfected along with cDNAs encoding RYSR-motif alanine variants of FGE in immortalized MSD Tet-On cells were transfected (FIG. 9C). Upon doxycycline induction, STS was barely active when expressed alone, whereas co-expression with FGE-wt increased the activity of STS approx. 50-fold, as observed previously (12).

- processing of FGE (human PACE4): low efficiency
B1: FGE: human wild type full length formylglycine generating enzyme with RYSR furin cleavage motif, SEQ ID NO:2 (protein)
chain: ADEFSQEAGTGAGAGSLAGSCGCGTPQRPGAHGSSAAAHRYSREANAPGPVPGERQLAHSKMVPIPAGVFTMGTDDPQIKQDGEAPARRVTIDAFYMDAYEVSNTEFEKFVNSTGYLTEAEKFGDSFVFEGMLSEQVKTNIQQAVAAAPWWLPVKGANWRHPEGPDSTILHRPDHPVLHVSWNDAVAYCTWAGKRLPTEAEWEYSCRGGLHNRLFPWGNKLQPKGQHYANIWQGEFPVTNTGEDGFQGTAPVDAFPPNGYGLYNIVGNAWEWTSDWWTVHHSVEETLNPKGPPSGKDRVKKGGSYMCHRSYCYRYRCAARSQNTPDSSASNLGFRCAADRLPTMDSGRGSHHHHHHH
modifications: cloned matured acitve full length FGE with 6x His tag on C-terminus
- increase of STS activity on co-expression (steroid sulfatase (STS)): approx. 50 fold
